Earlier results in PMC3877032.

Assays:
ERK2 (Homo sapiens) = ERK2 (Homo sapiens) (UniProt P28482)
PLD1 (Homo sapiens) = PLD1 (Homo sapiens) (UniProt Q13393)
Sequence of UniProt Q13393 (Q13393 whole entry): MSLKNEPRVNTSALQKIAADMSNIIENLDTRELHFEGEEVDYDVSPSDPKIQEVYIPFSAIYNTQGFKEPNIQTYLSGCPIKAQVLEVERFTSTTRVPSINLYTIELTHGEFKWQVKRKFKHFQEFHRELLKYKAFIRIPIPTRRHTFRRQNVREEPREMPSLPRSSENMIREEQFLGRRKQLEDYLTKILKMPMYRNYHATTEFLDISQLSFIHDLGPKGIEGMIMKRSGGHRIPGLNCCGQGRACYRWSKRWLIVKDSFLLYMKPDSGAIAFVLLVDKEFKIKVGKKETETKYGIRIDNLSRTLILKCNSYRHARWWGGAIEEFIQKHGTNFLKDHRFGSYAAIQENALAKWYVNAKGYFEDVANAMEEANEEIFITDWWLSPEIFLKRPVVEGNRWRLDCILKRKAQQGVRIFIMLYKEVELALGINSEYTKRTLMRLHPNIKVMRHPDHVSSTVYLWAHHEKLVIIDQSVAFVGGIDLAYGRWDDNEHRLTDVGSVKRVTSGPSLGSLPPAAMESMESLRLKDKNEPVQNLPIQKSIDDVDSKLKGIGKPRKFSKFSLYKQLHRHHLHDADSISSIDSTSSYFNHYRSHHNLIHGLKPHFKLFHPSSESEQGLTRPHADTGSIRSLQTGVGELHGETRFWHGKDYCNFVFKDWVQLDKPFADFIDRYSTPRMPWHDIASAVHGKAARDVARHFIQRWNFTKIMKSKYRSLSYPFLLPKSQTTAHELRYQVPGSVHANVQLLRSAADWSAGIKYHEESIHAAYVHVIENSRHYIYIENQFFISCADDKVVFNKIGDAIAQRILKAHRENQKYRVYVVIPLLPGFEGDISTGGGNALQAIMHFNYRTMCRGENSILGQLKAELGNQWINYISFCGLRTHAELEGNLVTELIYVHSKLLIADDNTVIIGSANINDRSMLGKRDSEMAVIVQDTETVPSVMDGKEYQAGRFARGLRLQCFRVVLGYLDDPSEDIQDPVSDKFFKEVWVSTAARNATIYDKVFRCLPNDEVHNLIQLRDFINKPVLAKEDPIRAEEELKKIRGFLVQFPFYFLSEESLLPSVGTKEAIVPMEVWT

Sequence of UniProt P28482 (P28482 2-360): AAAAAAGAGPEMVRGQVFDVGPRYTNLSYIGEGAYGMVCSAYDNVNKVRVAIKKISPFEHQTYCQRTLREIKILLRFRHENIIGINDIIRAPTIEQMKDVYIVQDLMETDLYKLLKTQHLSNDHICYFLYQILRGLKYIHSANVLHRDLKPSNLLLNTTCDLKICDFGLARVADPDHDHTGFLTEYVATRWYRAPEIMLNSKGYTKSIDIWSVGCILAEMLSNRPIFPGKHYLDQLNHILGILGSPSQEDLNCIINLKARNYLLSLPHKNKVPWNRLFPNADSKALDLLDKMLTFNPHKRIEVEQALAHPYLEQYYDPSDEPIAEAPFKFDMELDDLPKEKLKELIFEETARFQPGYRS

Kd (ERK2 (Homo sapiens)): 133 nM
Substance: PEA-15 (from UniProt Q15121)
Kd (PLD1 (Homo sapiens)): 370 nM
